Reference: publication PMC9482650, “Quantitative fragmentomics allow affinity mapping of interactomes” (Nature Communications, 2022)

T1: SNTB1, Q13884
T1 sequence (Q13884 107-205, limits assumed, looked up): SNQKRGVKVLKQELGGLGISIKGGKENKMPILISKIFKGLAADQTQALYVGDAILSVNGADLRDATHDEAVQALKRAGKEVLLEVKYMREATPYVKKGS

T2: HTRA3, P83110
T2 sequence (P83110 354-453, limits assumed, looked up): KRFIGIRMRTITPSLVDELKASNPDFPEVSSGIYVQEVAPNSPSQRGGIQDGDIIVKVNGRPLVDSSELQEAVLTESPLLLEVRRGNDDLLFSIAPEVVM

T3: LRRC7, Q96NW7
T3 sequence (Q96NW7 1440-1537, limits assumed, looked up): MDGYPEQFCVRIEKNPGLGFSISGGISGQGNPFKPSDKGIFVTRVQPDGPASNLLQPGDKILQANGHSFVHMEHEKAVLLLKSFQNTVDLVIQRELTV

T4: DFNB31_2, Q9P202
T4 sequence (Q9P202 274-371, limits assumed, looked up): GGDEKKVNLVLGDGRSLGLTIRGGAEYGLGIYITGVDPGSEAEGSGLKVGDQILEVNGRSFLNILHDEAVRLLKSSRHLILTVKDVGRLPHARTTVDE

T5: ARHGAP21, Q5T5U3
T5 sequence (Q5T5U3 45-169, limits assumed, looked up): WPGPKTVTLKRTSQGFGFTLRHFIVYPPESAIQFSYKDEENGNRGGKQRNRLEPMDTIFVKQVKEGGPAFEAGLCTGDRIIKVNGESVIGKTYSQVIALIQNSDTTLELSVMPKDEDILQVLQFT

T6: MPDZ_5, O75970
T6 sequence (O75970 695-796, limits assumed, looked up): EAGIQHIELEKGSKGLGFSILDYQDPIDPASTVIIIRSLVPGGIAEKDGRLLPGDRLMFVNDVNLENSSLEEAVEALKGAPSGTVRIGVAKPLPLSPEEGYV

T7: PDZRN3_1, Q9UPQ7
T7 sequence (Q9UPQ7 244-349, limits assumed, looked up): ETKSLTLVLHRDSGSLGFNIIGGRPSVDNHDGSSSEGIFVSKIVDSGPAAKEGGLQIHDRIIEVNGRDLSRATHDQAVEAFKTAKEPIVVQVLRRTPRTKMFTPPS

T8: MPDZ_10, O75970
T8 sequence (O75970 1624-1722, limits assumed, looked up): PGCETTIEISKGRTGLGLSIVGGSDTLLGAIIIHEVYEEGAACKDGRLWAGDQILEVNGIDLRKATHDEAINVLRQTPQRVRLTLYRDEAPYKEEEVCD

T9: RHPN1, Q8TCX5
T9 sequence (Q8TCX5 508-602, limits assumed, looked up): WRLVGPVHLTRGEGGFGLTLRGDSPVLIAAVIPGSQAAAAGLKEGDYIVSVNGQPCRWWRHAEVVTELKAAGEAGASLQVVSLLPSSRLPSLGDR

T10: MPP7, Q5T2T1
T10 sequence (Q5T2T1 134-230, limits assumed, looked up): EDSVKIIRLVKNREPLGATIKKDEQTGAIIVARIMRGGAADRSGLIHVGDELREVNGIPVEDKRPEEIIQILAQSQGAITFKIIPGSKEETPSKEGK

T11: FRMPD1, Q5SYB0
T11 sequence (Q5SYB0 52-145, limits assumed, looked up): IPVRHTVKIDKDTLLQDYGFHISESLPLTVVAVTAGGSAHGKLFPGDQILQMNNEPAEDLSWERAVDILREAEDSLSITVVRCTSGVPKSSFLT

B1: TYRO3, Q06418 (peptide)
chain: QQGLLPHSSC
B2: SLC1A7, O00341 (peptide)
chain: IQISELETNV

biological target: FRMPD2_2, Q68DX3; experiment: holdup assay; set-up: key: below the threshold = too weak to quantify, mostly under pKd 3.1 to 4; conditions: plain residues with an end cap or a label only (N-terminal biotin on a linker: ado-ado)
Sequence (Q68DX3 944-1038): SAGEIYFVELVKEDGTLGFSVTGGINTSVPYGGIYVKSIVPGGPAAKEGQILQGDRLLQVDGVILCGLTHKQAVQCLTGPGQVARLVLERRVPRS

Q: With B1 as the binder, how does the pKd read?
A: Its pKd is “below the threshold”.

Q: How did the pKd turn out when B2 was run?
A: Its pKd is 5.03.

biological target: T1, SNTB1, Q13884; experiment: holdup assay; set-up: key: below the threshold = too weak to quantify, mostly under pKd 3.1 to 4; conditions: plain residues with an end cap or a label only (N-terminal biotin on a linker: ado-ado)

Q: For B1, which pKd is on record?
A: Its pKd is “below the threshold”.

Q: For B2, which pKd is on record?
A: Its pKd is 5.37.

biological target: DLG2_3, Q15700; experiment: holdup assay; set-up: key: below the threshold = too weak to quantify, mostly under pKd 3.1 to 4; conditions: plain residues with an end cap or a label only (N-terminal biotin on a linker: ado-ado)

Q: With B1 as the binder, how does the pKd read?
A: The pKd was “below the threshold”.

Q: Which pKd does the source give for B2 here?
A: Its pKd is “below the threshold”.

biological target: T2, HTRA3, P83110; experiment: holdup assay; set-up: key: below the threshold = too weak to quantify, mostly under pKd 3.1 to 4; conditions: plain residues with an end cap or a label only (N-terminal biotin on a linker: ado-ado)

Q: For B1, which pKd is on record?
A: Its pKd is “below the threshold”.

Q: For B2, which pKd is on record?
A: Its pKd is “below the threshold”.

biological target: T3, LRRC7, Q96NW7; experiment: holdup assay; set-up: key: below the threshold = too weak to quantify, mostly under pKd 3.1 to 4; conditions: plain residues with an end cap or a label only (N-terminal biotin on a linker: ado-ado)

Q: For B1, which pKd is on record?
A: The pKd was “below the threshold”.

Q: B2 was tested. Which pKd did it give?
A: Its pKd is “below the threshold”.

biological target: Inadl_3, Q8NI35; experiment: holdup assay; set-up: key: below the threshold = too weak to quantify, mostly under pKd 3.1 to 4; conditions: plain residues with an end cap or a label only (N-terminal biotin on a linker: ado-ado)
Sequence (Q8NI35 359-469): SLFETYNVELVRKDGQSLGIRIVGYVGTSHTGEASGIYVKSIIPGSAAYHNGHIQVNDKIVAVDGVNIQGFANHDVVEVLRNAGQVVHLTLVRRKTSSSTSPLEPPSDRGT

Q: Which pKd does the source give for B1 here?
A: The pKd was “below the threshold”.

Q: B2 was tested. Which pKd did it give?
A: Its pKd is 4.

biological target: SCRIB_3, Q14160; experiment: holdup assay; set-up: key: below the threshold = too weak to quantify, mostly under pKd 3.1 to 4; conditions: plain residues with an end cap or a label only (N-terminal biotin on a linker: ado-ado)
Sequence (Q14160 999-1103): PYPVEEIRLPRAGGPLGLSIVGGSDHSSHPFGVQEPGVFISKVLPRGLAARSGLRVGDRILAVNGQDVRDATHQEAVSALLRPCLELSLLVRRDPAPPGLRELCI

Q: With B1 as the binder, how does the pKd read?
A: Its pKd is “below the threshold”.

Q: With B2 as the binder, how does the pKd read?
A: Its pKd is 4.74.

biological target: T4, DFNB31_2, Q9P202; experiment: holdup assay; set-up: key: below the threshold = too weak to quantify, mostly under pKd 3.1 to 4; conditions: plain residues with an end cap or a label only (N-terminal biotin on a linker: ado-ado)

Q: How did the pKd turn out when B1 was run?
A: The pKd was “below the threshold”.

Q: With B2 as the binder, how does the pKd read?
A: The pKd was “below the threshold”.

biological target: T5, ARHGAP21, Q5T5U3; experiment: holdup assay; set-up: key: below the threshold = too weak to quantify, mostly under pKd 3.1 to 4; conditions: plain residues with an end cap or a label only (N-terminal biotin on a linker: ado-ado)

Q: Which pKd does the source give for B1 here?
A: The pKd was 4.

Q: B2 was tested. Which pKd did it give?
A: Its pKd is 3.98.

biological target: DLG4_1, P78352; experiment: holdup assay; set-up: key: below the threshold = too weak to quantify, mostly under pKd 3.1 to 4; conditions: plain residues with an end cap or a label only (N-terminal biotin on a linker: ado-ado)
Sequence (P78352 62-152): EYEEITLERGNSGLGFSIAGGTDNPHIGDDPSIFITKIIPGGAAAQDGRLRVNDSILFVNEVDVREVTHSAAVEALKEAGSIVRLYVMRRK

Q: B1 was tested. Which pKd did it give?
A: The pKd was “below the threshold”.

Q: How did the pKd turn out when B2 was run?
A: The pKd was 4.44.

biological target: SCRIB_1, Q14160; experiment: holdup assay; set-up: key: below the threshold = too weak to quantify, mostly under pKd 3.1 to 4; conditions: plain residues with an end cap or a label only (N-terminal biotin on a linker: ado-ado)
Sequence (Q14160 718-814): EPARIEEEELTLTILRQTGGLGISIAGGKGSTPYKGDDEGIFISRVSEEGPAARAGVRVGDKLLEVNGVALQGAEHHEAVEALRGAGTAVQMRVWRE

Q: How did the pKd turn out when B1 was run?
A: The pKd was “below the threshold”.

Q: Which pKd does the source give for B2 here?
A: The pKd was 4.11.

biological target: T6, MPDZ_5, O75970; experiment: holdup assay; set-up: key: below the threshold = too weak to quantify, mostly under pKd 3.1 to 4; conditions: plain residues with an end cap or a label only (N-terminal biotin on a linker: ado-ado)

Q: With B1 as the binder, how does the pKd read?
A: Its pKd is “below the threshold”.

Q: Which pKd does the source give for B2 here?
A: The pKd was “below the threshold”.

biological target: T7, PDZRN3_1, Q9UPQ7; experiment: holdup assay; set-up: key: below the threshold = too weak to quantify, mostly under pKd 3.1 to 4; conditions: plain residues with an end cap or a label only (N-terminal biotin on a linker: ado-ado)

Q: Which pKd does the source give for B1 here?
A: The pKd was “below the threshold”.

Q: Which pKd does the source give for B2 here?
A: Its pKd is 3.84.

biological target: TJP1_2, Q07157; experiment: holdup assay; set-up: key: below the threshold = too weak to quantify, mostly under pKd 3.1 to 4; conditions: plain residues with an end cap or a label only (N-terminal biotin on a linker: ado-ado)
Sequence (Q07157 181-274): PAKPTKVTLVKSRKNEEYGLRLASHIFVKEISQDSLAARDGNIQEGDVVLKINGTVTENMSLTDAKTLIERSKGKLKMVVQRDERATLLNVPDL

Q: For B1, which pKd is on record?
A: The pKd was “below the threshold”.

Q: Which pKd does the source give for B2 here?
A: The pKd was “below the threshold”.

biological target: Inadl_4, Q8NI35; experiment: holdup assay; set-up: key: below the threshold = too weak to quantify, mostly under pKd 3.1 to 4; conditions: plain residues with an end cap or a label only (N-terminal biotin on a linker: ado-ado)
Sequence (Q8NI35 547-651): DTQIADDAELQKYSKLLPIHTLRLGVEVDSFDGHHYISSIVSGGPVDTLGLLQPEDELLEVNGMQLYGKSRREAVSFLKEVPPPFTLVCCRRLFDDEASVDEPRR

Q: How did the pKd turn out when B1 was run?
A: The pKd was “below the threshold”.

Q: B2 was tested. Which pKd did it give?
A: Its pKd is “below the threshold”.

biological target: T8, MPDZ_10, O75970; experiment: holdup assay; set-up: key: below the threshold = too weak to quantify, mostly under pKd 3.1 to 4; conditions: plain residues with an end cap or a label only (N-terminal biotin on a linker: ado-ado)

Q: For B1, which pKd is on record?
A: Its pKd is 3.72.

Q: How did the pKd turn out when B2 was run?
A: The pKd was “below the threshold”.

biological target: PDLIM1, O00151; experiment: holdup assay; set-up: key: below the threshold = too weak to quantify, mostly under pKd 3.1 to 4; conditions: plain residues with an end cap or a label only (N-terminal biotin on a linker: ado-ado)
Sequence (O00151 1-87): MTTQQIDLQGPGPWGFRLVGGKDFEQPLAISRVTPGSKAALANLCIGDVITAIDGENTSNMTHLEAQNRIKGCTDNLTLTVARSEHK

Q: B1 was tested. Which pKd did it give?
A: The pKd was “below the threshold”.

Q: For B2, which pKd is on record?
A: The pKd was “below the threshold”.

biological target: NHERF4_1, Q86UT5-2; experiment: holdup assay; set-up: key: below the threshold = too weak to quantify, mostly under pKd 3.1 to 4; conditions: plain residues with an end cap or a label only (N-terminal biotin on a linker: ado-ado)
Sequence (Q86UT5 other isoform, or with tags, fused parts or gaps): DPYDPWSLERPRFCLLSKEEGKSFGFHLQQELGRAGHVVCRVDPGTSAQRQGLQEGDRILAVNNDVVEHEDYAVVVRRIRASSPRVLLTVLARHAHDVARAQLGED

Q: Which pKd does the source give for B1 here?
A: The pKd was 3.66.

Q: How did the pKd turn out when B2 was run?
A: Its pKd is “below the threshold”.

biological target: GORASP1, Q9BQQ3; experiment: holdup assay; set-up: key: below the threshold = too weak to quantify, mostly under pKd 3.1 to 4; conditions: plain residues with an end cap or a label only (N-terminal biotin on a linker: ado-ado)
Sequence (Q9BQQ3 1-208): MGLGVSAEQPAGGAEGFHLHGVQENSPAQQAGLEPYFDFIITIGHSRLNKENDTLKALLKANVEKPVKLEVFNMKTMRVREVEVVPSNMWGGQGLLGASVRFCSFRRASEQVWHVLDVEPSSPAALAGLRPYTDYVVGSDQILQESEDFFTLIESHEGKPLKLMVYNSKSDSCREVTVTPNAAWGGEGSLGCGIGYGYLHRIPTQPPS

Q: With B1 as the binder, how does the pKd read?
A: Its pKd is “below the threshold”.

Q: For B2, which pKd is on record?
A: Its pKd is “below the threshold”.

biological target: T9, RHPN1, Q8TCX5; experiment: holdup assay; set-up: key: below the threshold = too weak to quantify, mostly under pKd 3.1 to 4; conditions: plain residues with an end cap or a label only (N-terminal biotin on a linker: ado-ado)

Q: How did the pKd turn out when B1 was run?
A: Its pKd is “below the threshold”.

Q: With B2 as the binder, how does the pKd read?
A: Its pKd is 4.88.

biological target: T10, MPP7, Q5T2T1; experiment: holdup assay; set-up: key: below the threshold = too weak to quantify, mostly under pKd 3.1 to 4; conditions: plain residues with an end cap or a label only (N-terminal biotin on a linker: ado-ado)

Q: B1 was tested. Which pKd did it give?
A: Its pKd is “below the threshold”.

Q: With B2 as the binder, how does the pKd read?
A: The pKd was “below the threshold”.

biological target: Inadl_1, Q8NI35; experiment: holdup assay; set-up: key: below the threshold = too weak to quantify, mostly under pKd 3.1 to 4; conditions: plain residues with an end cap or a label only (N-terminal biotin on a linker: ado-ado)
Sequence (Q8NI35 113-229): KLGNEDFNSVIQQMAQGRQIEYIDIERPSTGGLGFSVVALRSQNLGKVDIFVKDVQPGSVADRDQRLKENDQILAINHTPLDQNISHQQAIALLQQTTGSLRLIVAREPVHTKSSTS

Q: Which pKd does the source give for B1 here?
A: The pKd was “below the threshold”.

Q: For B2, which pKd is on record?
A: The pKd was “below the threshold”.

biological target: IL16_1, Q14005; experiment: holdup assay; set-up: key: below the threshold = too weak to quantify, mostly under pKd 3.1 to 4; conditions: plain residues with an end cap or a label only (N-terminal biotin on a linker: ado-ado)
Sequence (Q14005 210-306): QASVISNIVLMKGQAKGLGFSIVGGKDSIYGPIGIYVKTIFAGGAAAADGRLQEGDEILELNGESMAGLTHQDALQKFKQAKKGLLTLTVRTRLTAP

Q: How did the pKd turn out when B1 was run?
A: Its pKd is “below the threshold”.

Q: With B2 as the binder, how does the pKd read?
A: Its pKd is 4.05.

biological target: T11, FRMPD1, Q5SYB0; experiment: holdup assay; set-up: key: below the threshold = too weak to quantify, mostly under pKd 3.1 to 4; conditions: plain residues with an end cap or a label only (N-terminal biotin on a linker: ado-ado)

Q: Which pKd does the source give for B1 here?
A: The pKd was “below the threshold”.

Q: For B2, which pKd is on record?
A: Its pKd is “below the threshold”.

biological target: GORASP2, Q9H8Y8; experiment: holdup assay; set-up: key: below the threshold = too weak to quantify, mostly under pKd 3.1 to 4; conditions: plain residues with an end cap or a label only (N-terminal biotin on a linker: ado-ado)

Q: For B1, which pKd is on record?
A: Its pKd is “below the threshold”.

Q: Which pKd does the source give for B2 here?
A: Its pKd is “below the threshold”.

biological target: NHERF4_4, Q86UT5; experiment: holdup assay; set-up: key: below the threshold = too weak to quantify, mostly under pKd 3.1 to 4; conditions: plain residues with an end cap or a label only (N-terminal biotin on a linker: ado-ado)
Sequence (Q86UT5 464-550): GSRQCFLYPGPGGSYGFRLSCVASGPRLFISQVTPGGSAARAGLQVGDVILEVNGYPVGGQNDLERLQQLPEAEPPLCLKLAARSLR

Q: For B1, which pKd is on record?
A: The pKd was “below the threshold”.

Q: For B2, which pKd is on record?
A: Its pKd is 3.85.

biological target: GRIP2_6, Q9C0E4; experiment: holdup assay; set-up: key: below the threshold = too weak to quantify, mostly under pKd 3.1 to 4; conditions: plain residues with an end cap or a label only (N-terminal biotin on a linker: ado-ado)
Sequence (Q9C0E4 648-740): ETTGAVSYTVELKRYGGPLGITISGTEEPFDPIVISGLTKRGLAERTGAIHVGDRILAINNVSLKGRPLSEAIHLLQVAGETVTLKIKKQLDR

Q: With B1 as the binder, how does the pKd read?
A: The pKd was “below the threshold”.

Q: For B2, which pKd is on record?
A: Its pKd is “below the threshold”.
